Test results from US20170247475A1 (Boehringer Ingelheim, published 2017).
Numbering of substitutions follows the chain as printed.

B1: VEGFBII22A10 (VHH)
VHH: EVQLVESGGGLVQPGDSLKLSCAFSGRTFSSYSMGWFRQAQGKEREFVVAISSSGGYIYDSVSLEGRFTISRDNTKNTVYLQTPSLKPEDTADYYCAASRAYGSSRLRLADTYDYWGQGTQVTVSS
notes: periplasmic extract
B2: VEGFBII23F05 (VHH)
VHH: B1 VHH with P14A, K19R, F24A, G56N, I58K, T83I, P84N, E89K, D93V, A110G
notes: periplasmic extract
B3: VEGFBII39G04 (VHH)
VHH: EVPLVESGGGLVQAGDSLRLSCAASGRTFSSYSMGWFRQAQGKEREFVVAISSSGNYKYDSASLEGRFTISRDNTKNTVYLQINSLKPEDTAVYYCAASRAYGSSRLRLGDTYDYWGQGTQVTVSS
notes: periplasmic extract
B4: VEGFBII42A05 (VHH)
VHH: B1 VHH with T83M
notes: periplasmic extract
B5: VEGFBII62A09 (VHH)
VHH: B1 VHH with G10D, F24A, D93V
notes: periplasmic extract
B6: VEGFBII56E11 (VHH)
VHH: B1 VHH with T91A
notes: periplasmic extract
B7: VEGFBII23F11 (VHH)
VHH: B1 VHH with S54G
notes: periplasmic extract
B8: VEGFBII22B07 (VHH)
VHH: B3 VHH with P3Q, A62V
notes: periplasmic extract
B9: VEGFBII40G07 (VHH)
VHH: B1 VHH with T78A
notes: periplasmic extract
B10: VEGFBII42D05 (VHH)
VHH: B1 VHH with D93V
notes: periplasmic extract
B11: VEGFBII23A09 (VHH)
VHH: B1 VHH with S30G, T75S, D93V, A110P
notes: periplasmic extract
B12: VEGFBII60A09 (VHH)
VHH: B1 VHH with K76R
notes: periplasmic extract
B13: VEGFBII23G03 (VHH)
VHH: B1 VHH with S30G, T75S, D93V, A110P, D111G
notes: periplasmic extract
B14: VEGFBII22B06 (VHH)
VHH: B1 VHH with F24A, D93V
notes: periplasmic extract
B15: VEGFBII40H10 (VHH)
VHH: B1 VHH with V5M
notes: periplasmic extract
B16: VEGFBII30E07 (VHH)
VHH: B3 VHH with P3Q, A62V, Q121R
notes: periplasmic extract
B17: VEGFBII62D10 (VHH)
VHH: B3 VHH with P3Q, G8E, A62V
notes: periplasmic extract
B18: VEGFBII39E02 (VHH)
VHH: B1 VHH with S17P
notes: periplasmic extract
B19: VEGFBII31C07 (VHH)
VHH: B1 VHH with P14T, K19R, F24A, R27G
notes: periplasmic extract
B20: VEGFBII40F02 (VHH)
VHH: EVQLVESGGGLVQPGDSLKLSCAFSGRTFSSYSMAWFRQAQGKEREFVVAISSGGFIYDAVSLEGRFTISRDNTKNTVYLQTPSLKPEGTAVYYCAASRAYGSSRLRLADTYDYWGQGTQVTVSS
notes: periplasmic extract
B21: VEGFBII62F02 (VHH)
VHH: B20 VHH with A35G, S52A, F56Y, N76D, G89D
notes: periplasmic extract
B22: VEGFBII41B05 (VHH)
VHH: B20 VHH with D16G, K19R, A35G, G89D
notes: periplasmic extract
B23: VEGFBII41G03 (VHH)
VHH: B20 VHH with D72E, G89D
notes: periplasmic extract
B24: VEGFBII61A01 (VHH)
VHH: B20 VHH with P14A, D16G, K19R, A35G, F56Y, I57K, G89D, G102A
notes: periplasmic extract
B25: VEGFBII42F11 (VHH)
VHH: B20 VHH with A23V, F24A, F29S, M34V, A35G, F56Y, A60S, E64Q, G89D
notes: periplasmic extract
B26: VEGFBII111D05 (VHH)
VHH: EVQLVESGGGLVQTGGSLRLSCEASGRTFSSYSMGWFRQAPGKEREFVVAISKGGYKYDSVSLEGRFTISRDNAKNTVYLQINSLRPEDTAVYYCASSRAYGSSRLRLADTYEYWGQGTLVTVSS
B27: VEGFBII112D11 (VHH)
VHH: B26 VHH with T14P
B28: VEGFBII113A08 (VHH)
VHH: B26 VHH with A24V, R71K
B29: VEGFBII114C09 (VHH)
VHH: B26 VHH with T14P, G16D, A24V, R71K
B30: VEGFBII111G06 (VHH)
VHH: B26 VHH with T14P, E23A, I82M
B31: VEGFBII113E03 (VHH)
VHH: B26 VHH with G16D, A24V, P41Q, R71K, I82M
B32: VEGFBII114D02 (VHH)
VHH: B26 VHH with A24V

What follows are binders tested against T1, recombinant human VEGF165 (human, UniProt P15692-4 27-191) (assay: Biacore, periplasmic extract on hVEGF165 chip, two phase decay fit).
T1 construct: also called hVEGF165; rhVEGF165
Procedure: (§1) Dissociation rates of inhibitory VHHs are analyzed on Biacore (Biacore T100 instrument, GE Healthcare). HBS-EP+ buffer is used as running buffer and experiments are performed at 25° C. […] After immobilization, surfaces are deactivated with 10 min injection of 1M ethanolamine pH8.5. A reference surface is activated and deactivated with respectively EDC/NHS and ethanolamine. Periplasmic extracts of VHHs are injected at a 10-fold dilution in running buffer for 2 min at 45 μl/min and allowed to dissociate for 10 or 15 min. Between different samples, the surfaces are regenerated with regeneration buffer. Data are double referenced by subtraction of the curves on the reference channel and of a blank running buffer injection. […] is evaluated by fitting a two phase decay model in the Biacore T100 Evaluation software v2.0.1.

T1 sequence (P15692 other isoform, or with tags, fused parts or gaps limits assumed): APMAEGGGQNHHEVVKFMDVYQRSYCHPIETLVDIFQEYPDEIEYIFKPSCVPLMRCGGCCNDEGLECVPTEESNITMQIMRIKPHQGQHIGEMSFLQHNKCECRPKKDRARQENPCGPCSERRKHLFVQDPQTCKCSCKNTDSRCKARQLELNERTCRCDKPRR

% fast [%] | Binder
19 | B1
29 | B2
40 | B3
25 | B4
23 | B5
24 | B6
22 | B7
31 | B8
19 | B9
26 | B10
20 | B11
20 | B12
28 | B13
23 | B14
17 | B15
29 | B16
40 | B17
13 | B18
25 | B19
20 | B20
21 | B21
16 | B22
20 | B23
21 | B24
46 | B25

These binders were tested against T1, recombinant human VEGF165 (assay: VEGF165/VEGFR2 AlphaScreen).

% inhibition [%] | IC50 [nM] | Binder
100 | 0.209 | B26
100 | 0.221 | B27
100 | 0.253 | B28
100 | 0.215 | B29
100 | 0.366 | B30
100 | 0.29 | B31
100 | 0.199 | B32

The binders below were run against T1, recombinant human VEGF165 (assay: Biacore, periplasmic extract on hVEGF165 chip).
Procedure: as §1

Binding level (RU) | Binder
229 | B1
198 | B2
210 | B3
118 | B4
84 | B5
76 | B6
134 | B7
328 | B8
139 | B9
77 | B10
247 | B11
106 | B12
141 | B13
168 | B14
200 | B15
226 | B16
94 | B17
181 | B18
77 | B19
258 | B20
205 | B21
324 | B22
332 | B23
275 | B24
100 | B25
